Each block holds one substance with its values, some of them ahead of it.
Key:
[1] = biological target: Rse ligand (Rse-L) in fetal bovine serum, unpurified or Q-Sepharose enriched (bovine) (UniProt P07224); test: Scatchard analysis, 125I-Rse-IgG displaced by unlabeled Rse-IgG on CMK11-5 membranes, 1% FBS
[2] = biological target: Rse ligand (Rse-L) in fetal bovine serum, unpurified or Q-Sepharose enriched (bovine) (UniProt P07224); test: Scatchard analysis, 125I-Rse-IgG displaced by unlabeled Rse-IgG on CMK11-5 membranes, 10% FBS
[3] = biological target: recombinant human gas6 (human); test: 125I-Rse-IgG and purified gas6, displaced by unlabeled Rse-IgG, barium chloride coprecipitation
[4] = biological target: Rse.gD (human Rse receptor with a C-terminal HSV-1 glycoprotein D flag) on dp12.CHO cells (human) (UniProt Q06418)
[5] = biological target: Rse-IgG fusion protein (extracellular domain of human Rse followed by the Fc portion of human IgG) (human) (UniProt Q06418); test: 125I-Rse-IgG binding assay
[6] = biological target: Rse-IgG fusion protein (extracellular domain of human Rse followed by the Fc portion of human IgG) (human) (UniProt Q06418); test: 125I-Rse-IgG binding to CMK11-5 membranes
[7] = biological target: Rse.gD (human Rse receptor with a C-terminal HSV-1 glycoprotein D flag) on dp12.CHO cells (human) (UniProt Q06418); remark: listed apart in the source

Substance: gD.gas6.279-C.IgG (from UniProt P01857-1) (Fc fusion)
KIRA assay, EC50 for activation [4]: 0.4 nM

Substance: purified bovine protein S (Rse-L purified from fetal bovine serum) (from UniProt P07224) (ligand)
EC50 [6]: 1.2 nM

Substance: recombinant human gas6 lacking the gamma-carboxyl modification of glutamic acid (form 2) (ligand)
KIRA assay, specific activity (KIRA units/mg P) [7]: 3160

The next lines start with the values.

Kd [1]: 0.82 nM | Kd [2]: 2.2 nM | Kd [3]: 0.46 nM
Substance: Rse-IgG fusion protein (extracellular domain of human Rse followed by the Fc portion of human IgG) (from UniProt Q06418) (Fc fusion)

fold lower affinity than purified bovine protein S [5]: 200 fold | EC50 [6]: > 250 nM
Substance: human protein S (ligand)

KIRA assay, specific activity (KIRA units/mg P) [7]: 1170
Substance: recombinant human gas6 (ligand)

— patent publication US5955420
